Measured values published in patent US20260234255A1 (Genmab, published 2026).
Residue numbers refer to the chain shown, from its start.

T1: human CD30 (human, UniProt P28908 19-595)
T1 sequence: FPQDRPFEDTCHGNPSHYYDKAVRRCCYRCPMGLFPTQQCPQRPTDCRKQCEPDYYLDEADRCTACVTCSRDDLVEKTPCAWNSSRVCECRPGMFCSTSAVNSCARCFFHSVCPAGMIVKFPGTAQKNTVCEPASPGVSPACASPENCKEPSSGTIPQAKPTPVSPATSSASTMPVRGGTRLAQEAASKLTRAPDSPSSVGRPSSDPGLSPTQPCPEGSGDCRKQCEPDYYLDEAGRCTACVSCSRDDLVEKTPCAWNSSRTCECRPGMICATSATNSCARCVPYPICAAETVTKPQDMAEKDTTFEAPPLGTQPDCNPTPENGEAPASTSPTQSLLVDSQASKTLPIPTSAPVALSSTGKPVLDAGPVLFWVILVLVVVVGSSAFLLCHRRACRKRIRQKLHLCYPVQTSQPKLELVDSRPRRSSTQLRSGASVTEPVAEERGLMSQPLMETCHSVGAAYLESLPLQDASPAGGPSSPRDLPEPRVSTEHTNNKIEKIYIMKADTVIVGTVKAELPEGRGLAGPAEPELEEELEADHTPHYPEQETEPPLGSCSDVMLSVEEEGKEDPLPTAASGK

T2: rhesus monkey (Macaca mulatta) CD30 (rhesus monkey, UniProt P28908 19-595 (human entry))
T2 construct: also called mmCD30
T2 chain: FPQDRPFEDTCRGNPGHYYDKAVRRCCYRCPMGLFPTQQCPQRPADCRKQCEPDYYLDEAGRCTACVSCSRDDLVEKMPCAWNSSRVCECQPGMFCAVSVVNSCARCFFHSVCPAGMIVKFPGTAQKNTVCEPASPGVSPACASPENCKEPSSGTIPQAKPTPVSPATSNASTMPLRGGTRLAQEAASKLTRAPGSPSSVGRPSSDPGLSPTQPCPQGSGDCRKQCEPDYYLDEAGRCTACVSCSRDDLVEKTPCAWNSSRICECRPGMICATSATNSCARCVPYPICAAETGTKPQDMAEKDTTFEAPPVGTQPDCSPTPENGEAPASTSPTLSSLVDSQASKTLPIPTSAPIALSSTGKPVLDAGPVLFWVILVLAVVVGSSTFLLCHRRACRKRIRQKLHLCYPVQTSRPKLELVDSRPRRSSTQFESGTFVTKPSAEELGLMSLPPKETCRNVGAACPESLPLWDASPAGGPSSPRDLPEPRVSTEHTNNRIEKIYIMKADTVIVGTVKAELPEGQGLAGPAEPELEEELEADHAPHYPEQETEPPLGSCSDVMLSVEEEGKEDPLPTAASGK

B1: bsG1-huCD3-FEALxCD30-MDX060-FEAR (bispecific antibody, human IgG1, kappa, lambda)
heavy 1: not shown
light 1: not shown
heavy 2: QVQLQQWGAGLLKPSETLSLTCAVYGGSFSAYYWSWIRQPPGKGLEWIGDINHGGGTNYNPSLKSRVTISVDTSKNQFSLKLNSVTAADTAVYYCASLTAYWGQGSLVTVSSASTKGPSVFPLAPSSKSTSGGTAALGCLVKDYFPEPVTVSWNSGALTSGVHTFPAVLQSSGLYSLSSVVTVPSSSLGTQTYICNVNHKPSNTKVDKRVEPKSCDKTHTCPPCPAPEFEGGPSVFLFPPKPKDTLMISRTPEVTCVVVAVSHEDPEVKFNWYVDGVEVHNAKTKPREEQYNSTYRVVSVLTVLHQDWLNGKEYKCKVSNKALPAPIEKTISKAKGQPREPQVYTLPPSREEMTKNQVSLTCLVKGFYPSDIAVEWESNGQPENNYKTTPPVLDSDGSFFLYSRLTVDKSRWQQGNVFSCSVMHEALHNHYTQKSLSLSPG
light 2: DIQMTQSPTSLSASVGDRVTITCRASQGISSWLTWYQQKPEKAPKSLIYAASSLQSGVPSRFSGSGSGTDFTLTISSLQPEDFATYYCQQYDSYPITFGQGTRLEIKRTVAAPSVFIFPPSDEQLKSGTASVVCLLNNFYPREAKVQWKVDNALQSGNSQESVTEQDSKDSTYSLSSTLTLSKADYEKHKVYACEVTHQGLSSPVTKSFNRGEC
notes: also called bsG1-huCD3xCD30-MDX060
B2: bsG1-huCD3-FEALxCD30-MDX060-FERR (bispecific antibody, human IgG1, kappa, lambda)
heavy 1: not shown
light 1: not shown
heavy 2: B1 heavy 2 with G231R, A260D
light 2: B1 light 2
notes: Bispecific IgG1 made by controlled Fab-arm exchange; also called bsIgG1-huCD3-FEALxCD30-MDX060-FERR; bsG1-huCD3×CD30-MDX060

Key:
[1] = target: T1, human CD30; test: cell-based or functional assay
[2] = target: T1, human CD30; test: flow cytometry, Expi293F cells transfected with human CD30
Procedure: Cells (3×10⁴ cells/well) were incubated in polystyrene 96-well round-bottom plates (Greiner bio-one, cat. no. 650180) with serial dilutions of antibodies (ranging from 0.005 to 10 μg/mL in 3-fold dilution steps) in 100 μL staining buffer at 4° C. for 30 min. Experiments were performed in technical duplicate. After washing twice in staining buffer, cells were incubated in 50 μL secondary antibody at 4° C. for 30 min. As a secondary antibody, R-PE-conjugated goat-anti-human IgG (Jackson ImmunoResearch, UK; cat. no. 109⁻¹¹⁶-098) diluted 1:400 in staining buffer was used. Cells were washed twice in staining buffer, resuspended in 30 μL staining buffer containing 0.4% EDTA and analyzed on an iQue Screener (Intellicyt Corporation, USA). Binding curves were analyzed using non-linear regression (sigmoidal dose-response with variable slope) using GraphPad Prism V9.0.0 software (GraphPad Software, San Diego, CA, USA).

[3] = target: T1, human CD30; test: flow cytometry, DEL cells (ALCL), average of 3 tests
Procedure: (§1) Cells (3×10⁴ cells/well) were incubated in polystyrene 96-well round-bottom plates (Greiner bio-one, cat. no. 650180) with serial dilutions of antibodies (range 0.0046 to 10 μg/mL in 3-fold dilution steps) in 50 μL staining buffer at 4° C. for 30 min. After washing twice in staining buffer, cells were incubated with 50 μL secondary antibody at 4° C. for 30 min. […] Next, cells were washed twice in staining buffer, resuspended in 100 μL staining buffer supplemented with TO-PRO-3 iodide (Thermo Fisher Scientific; cat. no. T3605; 1:8000 dilution) and analyzed on a FACSCelesta flow cytometer (BD Biosciences, USA). Live cells were gated based on FSC/SSC and absence of TOPRO-3 staining. Binding curves were analyzed by non-linear regression of log-transformed data (sigmoidal dose-response with variable slope, four parameters) using GraphPad Prism V7.02 software (GraphPad Software, San Diego, CA, USA).

[4] = target: T1, human CD30; test: flow cytometry, KI-JK cells (ALCL), range of 3 tests
Procedure: as §1

[5] = target: T1, human CD30; test: flow cytometry, SUP-M2 cells (ALCL), average of 3 tests
Procedure: as §1

[6] = target: T1, human CD30; test: flow cytometry, NCEB-1 cells (MCL), range of 3 tests
Procedure: as §1

[7] = target: T2, rhesus monkey (Macaca mulatta) CD30; test: flow cytometry, HEK293 cells; panel title 'HEK293 rhesus CD30'
Procedure: Cells (3×10⁴ cells/well) were incubated in polystyrene 96-well round-bottom plates (Thermo Scientific, cat. no. 163320) with serial dilutions of antibodies (ranging from 0.0002 to 50 μg/mL in 4-fold dilution steps) in 50 μL staining buffer at 4° C. for 30 min. Experiments were performed in technical duplicate. After washing twice in staining buffer, cells were incubated in 50 μL secondary antibody at 4° C. for 30 min. As a secondary antibody, R-PE-conjugated goat-anti-human IgG (Jackson ImmunoResearch, UK; cat. no. 109⁻¹¹⁶-098) diluted 1:200 in staining buffer was used. Cells were washed twice in staining buffer, resuspended in 30 μL staining buffer containing 0.4% EDTA and the ToPro-3 viability marker (Invitrogen, cat. no. T3605) diluted 1:10,000. Cells were analyzed on an iQue Screener (Intellicyt Corporation, USA). Binding curves were analyzed using non-linear regression (sigmoidal dose-response with variable slope) using GraphPad Prism V9.0.0 software (GraphPad Software, San Diego, CA, USA).

[8] = target: T1, human CD30; test: flow cytometry, KI-JK cells (ALCL), average of 3 tests
Procedure: as §1

Binder	T-cell mediated cytotoxicity of Karpas-299 cells, IC50 average [1] [µg/mL]	T-cell mediated cytotoxicity of Karpas-299 cells, maximum lysis average [1] [%]	EC50 (read off the curve) [2] [µg/mL]	EC50 [3] [µg/mL]	EC50 [4] [µg/mL]	EC50 [5] [µg/mL]	EC50 [6] [µg/mL]	EC50 (read off the curve) [7] [µg/mL]	EC50 [8] [µg/mL]
B1	0.033	53.7	~0.09	–	–	–	–	–	–
B2	0.029	52.3	–	0.201	0.143 to 0.258	0.167	0.118 to 0.2	~0.07	0.191
